In the Immune Epitope Database (IEDB):
pIC50, pKd: −log10 of the molar value. Values belong to the sequence of their own block, whether it stands above or below them.

Legend:
HLA-B*51:01 [1] = assay: IEDB peptide-MHC binding, purified MHC/competitive/radioactivity; ≥ and ≤ were set here for values at or beyond the usual limits of such assays
HLA-B*53:01 [2] = assay: as above
HLA-B*54:01 [3] = assay: as above
HLA-B*07:02 [4] = assay: IEDB peptide-MHC binding, purified MHC/competitive/radioactivity; filed as Kd, often an IC50 or EC50 that approximates it; ≥ and ≤ were set here for values at or beyond the usual limits of such assays
HLA-B*35:01 [5] = assay: as above
HLA-B*07:02 [6] = assay: IEDB peptide-MHC binding, purified MHC/competitive/radioactivity; ≥ and ≤ were set here for values at or beyond the usual limits of such assays
HLA-B*53:01 [7] = assay: IEDB peptide-MHC binding, purified MHC/competitive/radioactivity; filed as Kd, often an IC50 or EC50 that approximates it; ≥ and ≤ were set here for values at or beyond the usual limits of such assays
HLA-B*35:01 [8] = assay: IEDB peptide-MHC binding, purified MHC/competitive/radioactivity; ≥ and ≤ were set here for values at or beyond the usual limits of such assays
HLA-B*51:01 [9] = assay: IEDB peptide-MHC binding, purified MHC/competitive/radioactivity; filed as Kd, often an IC50 or EC50 that approximates it; ≥ and ≤ were set here for values at or beyond the usual limits of such assays
HLA-B*54:01 [10] = assay: as above
[11] = source organism: Human papillomavirus type 6b
[12] = source organism: Human T-cell leukemia virus type I
[13] = source organism: Human immunodeficiency virus 1
[14] = source organism: Candida albicans
[15] = source organism: human papillomavirus 18
[16] = source organism: Human T-cell lymphotrophic virus type 1 (Caribbean isolate)

Sequence: IPFLTKFKL
- pIC50 (HLA-B*51:01 [1]; [11]): 7.51
- pIC50 (HLA-B*53:01 [2]; [11]): 6.24
- pIC50 (HLA-B*54:01 [3]; [11]): 6.08
- pKd (HLA-B*07:02 [4]; [11]): 5.62
- pKd (HLA-B*35:01 [5]; [11]): 5.05

Sequence: LPTTLFQPY
- pIC50 (HLA-B*07:02 [6]; [12]): 6.37
- pIC50 (HLA-B*51:01 [1]; [12]): 7.38
- pIC50 (HLA-B*54:01 [3]; [12]): 9.08
- pKd (HLA-B*35:01 [5]; [12]): 5.81
- pKd (HLA-B*53:01 [7]; [12]): 4.93

Sequence: FPVRPQVPM
- pIC50 (HLA-B*07:02 [6]; [13]): 8.42
- pIC50 (HLA-B*35:01 [8]; [13]): 7.89
- pIC50 (HLA-B*53:01 [2]; [13]): 7.49
- pIC50 (HLA-B*54:01 [3]; [13]): 7.10
- pKd (HLA-B*51:01 [9]; [13]): 5.89

Sequence: FPVRPQVPI
- pIC50 (HLA-B*07:02 [6]; [13]): 7.65
- pIC50 (HLA-B*35:01 [8]; [13]): 6.93
- pIC50 (HLA-B*51:01 [1]; [13]): 7.83
- pIC50 (HLA-B*53:01 [2]; [13]): 7.52
- pIC50 (HLA-B*54:01 [3]; [13]): 8.80

Sequence: SPLGERLEV
- pIC50 (HLA-B*07:02 [6]; [15]): 7.38
- pKd (HLA-B*35:01 [5]; [15]): ≤ 4.60
- pKd (HLA-B*51:01 [9]; [15]): ≤ 4.60
- pKd (HLA-B*53:01 [7]; [15]): ≤ 4.60
- pKd (HLA-B*54:01 [10]; [15]): 5.04

Sequence: WPLLPHVIF
- pIC50 (HLA-B*07:02 [6]; [16]): 6.44
- pIC50 (HLA-B*35:01 [8]; [16]): 6.74
- pIC50 (HLA-B*51:01 [1]; [16]): 6.58
- pIC50 (HLA-B*54:01 [3]; [16]): 7.20
- pKd (HLA-B*53:01 [7]; [16]): 6.00

Sequence: LPTNASLSF
- pIC50 (HLA-B*35:01 [8]; source organism: Homo sapiens): 6.94
- pIC50 (HLA-B*51:01 [1]; source organism: Homo sapiens): 6.09
- pIC50 (HLA-B*53:01 [2]; source organism: Homo sapiens): 7.47
- pKd (HLA-B*54:01 [10]; source organism: Homo sapiens): ≤ 4.60

Sequence: MPNQAQMRI
- pIC50 (HLA-B*07:02 [6]; source organism: Homo sapiens): 6.22
- pIC50 (HLA-B*51:01 [1]; source organism: Homo sapiens): 7.85
- pIC50 (HLA-B*53:01 [2]; source organism: Homo sapiens): 7.70
- pIC50 (HLA-B*54:01 [3]; source organism: Homo sapiens): 6.37
- pKd (HLA-B*35:01 [5]; source organism: Homo sapiens): 5.98

Sequence: LPSPACQLV
- pIC50 (HLA-B*51:01 [1]; source organism: Homo sapiens): 8.09
- pIC50 (HLA-B*54:01 [3]; source organism: Homo sapiens): 6.66
- pKd (HLA-B*07:02 [4]; source organism: Homo sapiens): 5.10
- pKd (HLA-B*35:01 [5]; source organism: Homo sapiens): ≤ 4.60
- pKd (HLA-B*53:01 [7]; source organism: Homo sapiens): 5.15

Next, values leading:

- pIC50 (HLA-B*35:01 [8]; source organism: Homo sapiens): 6.35
- pIC50 (HLA-B*51:01 [1]; source organism: Homo sapiens): 9.34
- pIC50 (HLA-B*53:01 [2]; source organism: Homo sapiens): 8.18
- pIC50 (HLA-B*54:01 [3]; source organism: Homo sapiens): 6.53
Sequence: MPREDAHFI

- pIC50 (HLA-B*07:02 [6]; source organism: Homo sapiens): 7.17
- pIC50 (HLA-B*35:01 [8]; source organism: Homo sapiens): 6.99
- pIC50 (HLA-B*51:01 [1]; source organism: Homo sapiens): 8.21
- pIC50 (HLA-B*53:01 [2]; source organism: Homo sapiens): 6.70
- pKd (HLA-B*54:01 [10]; source organism: Homo sapiens): 6.00
Sequence: CPLERFAEL

- pIC50 (HLA-B*51:01 [1]; source organism: Homo sapiens): 7.68
- pIC50 (HLA-B*53:01 [2]; source organism: Homo sapiens): 7.80
- pKd (HLA-B*07:02 [4]; source organism: Homo sapiens): ≤ 4.60
- pKd (HLA-B*35:01 [5]; source organism: Homo sapiens): 5.37
- pKd (HLA-B*54:01 [10]; source organism: Homo sapiens): 5.41
Sequence: FPPEGVSIW

- pIC50 (HLA-B*07:02 [6]; source organism: Homo sapiens): 7.17
- pIC50 (HLA-B*51:01 [1]; source organism: Homo sapiens): 7.49
- pIC50 (HLA-B*53:01 [2]; source organism: Homo sapiens): 6.33
- pIC50 (HLA-B*54:01 [3]; source organism: Homo sapiens): 7.42
- pKd (HLA-B*35:01 [5]; source organism: Homo sapiens): 5.53
Sequence: LPSIPVHPI

- pIC50 (HLA-B*07:02 [6]; [14]): 7.85
- pIC50 (HLA-B*35:01 [8]; [14]): 7.82
- pIC50 (HLA-B*51:01 [1]; [14]): 8.06
- pIC50 (HLA-B*53:01 [2]; [14]): 8.17
- pIC50 (HLA-B*54:01 [3]; [14]): 7.82
Sequence: FPASFFIKL

- pIC50 (HLA-B*07:02 [6]; source organism: Homo sapiens): 8.00
- pIC50 (HLA-B*35:01 [8]; source organism: Homo sapiens): 6.75
- pIC50 (HLA-B*51:01 [1]; source organism: Homo sapiens): 6.79
- pIC50 (HLA-B*53:01 [2]; source organism: Homo sapiens): 7.64
- pKd (HLA-B*54:01 [10]; source organism: Homo sapiens): 4.90
Sequence: SPATLLLVL

- pIC50 (HLA-B*07:02 [6]; source organism: Homo sapiens): 7.22
- pKd (HLA-B*35:01 [5]; source organism: Homo sapiens): ≤ 4.60
- pKd (HLA-B*51:01 [9]; source organism: Homo sapiens): 5.26
- pKd (HLA-B*53:01 [7]; source organism: Homo sapiens): ≤ 4.60
- pKd (HLA-B*54:01 [10]; source organism: Homo sapiens): ≤ 4.60
Sequence: IPLYRNGDF

- pIC50 (HLA-B*07:02 [6]; source organism: Homo sapiens): 6.08
- pIC50 (HLA-B*35:01 [8]; source organism: Homo sapiens): 6.42
- pKd (HLA-B*51:01 [9]; source organism: Homo sapiens): 5.72
- pKd (HLA-B*53:01 [7]; source organism: Homo sapiens): 5.46
- pKd (HLA-B*54:01 [10]; source organism: Homo sapiens): ≤ 4.60
Sequence: SPSCPLERF
